Legend:
[1] = system: intracellular proteins, including tubulin and actin; test: Affinity of cyanines towards intracellular proteins; assay type: binding
Excerpt: (§1) The present targeting molecule is very selective and very specific in binding to necrotic cells. […] For the present invention three specific cyanines are selected, namely 800CW, 800RS, and ZW-800. These molecules are found to have a high affinity towards the intracellular proteins, including tubulin and actin. […] As a result, very low concentrations c.q. amounts of the present system may be used to provide advantageous effects thereof. It is noted that apoptosis specific probes, in contrast to necrosis specific probes will also target healthy tissue as apoptosis is involved in normal tissue turnover. The present cyanine is attached to a second entity, namely a linker, wherein the linker may even be a relatively small molecule, the linker being attached to the present drug uptake improving molecule, wherein the drug uptake improving molecule is selected from aromatic compounds comprising a residue or group selected from amino acid residues, which latter molecule is attached to the chelator, wherein the chelator is typically selected from DOTA and NOTA comprising compounds (DOTA: 1,4,7,10-Tetraazacy-clododecane-1,4,7,10-tetraacetic acid and NOTA: 1,4,7-triazacyclononane-N,N′,N″-tri-acetic acid). Attached to the chelator a further entity may be attached, such as a radionuclide. […]

[2] = Clearance of cyanines in the human body; conditions: in vivo
Excerpt: as §1

NCI-H69 tumor = test: Biodistribution of 111In-radiolabeled compounds in mice bearing NCI-H69 tumors
Excerpt: CORETAG has evaluated the radiolabeling, in vitro binding, pharmacology in tumor animal model, and PET or SPECT imaging with an overall expertise in targeted radiotherapy and companion imaging diagnostic. The aim of this part is to evaluate the biodistribution of the 4 compounds below and compare it to the biodistribution of DOT-AGA-PEG4-CW800 (prior art).
The injected activity was about 9.0 MBq.
The NCI-H69 cell line used is a human small cell lung cancer carcinoma that was
Tumor cells were grown at 37° C. in a humidified atmosphere (5% CO2, 95% air). The culture medium will be RPMI1640 medium containing 10% fetal calf serum. NCI-H69 tumor cells are growing as a cell suspension. For experimental use, tumor cells were harvested by centrifugation. Cells were counted and viability assessed using a 0.25% try-pan blue exclusion assay.
Thirty-one (31) healthy female SWISS Nude (Crl:NU(Ico)-Foxn1nu) mice, 6-8 weeks old at reception, were obtained from Charles River. The injection volume was 100 μl.
Tumors were induced by subcutaneous injection of 2×10^7 NCI-H69 cells in 200 μL of RPMI 1640 into the right flank of 31 female animals in the axis of the heart. NCI-H69 tumor cell implantation was performed 24 to 72 hours after a whole-body irradiation with a gamma-source (2 Gy, 60 Co, BioMep, France). The day of tumor induction is considered as D0.
All imaging experiments were performed on a 4.7T horizontal magnet (PharmaS-can, Bruker Biospin GmbH, Germany) equipped with an actively shielded gradient system. All the MR images were acquired under ParaVision (PV5.1, Bruker Biospin).

[3] = Aqueous solution concentration; assay type: physicochemical

## CC1(C)C(/C=C/C2=C(Oc3ccc(S(=O)(=O)O)cc3)C(=C/C=C3/N(CCCCS(=O)(=O)O)c4ccc(S(=O)(=O)[O-])cc4C3(C)C)/CCC2)=[N+](CCCCCC(=O)O)c2ccc(S(=O)(=O)O)cc21 [800CW]
[1]
  affinity towards the intracellular proteins: high affinity
[2]
  clearance in the human body: cleared in the human body specifically well

## CC1(C)C(=CC=C2CCCC(C=CC3=[N+](CCC[N+](C)(C)C)c4ccc(S(=O)(=O)O)cc4C3(C)C)=C2Oc2ccc(CCC(=O)O)cc2)N(CCC[N+](C)(C)C)c2ccc(S(=O)(=O)O)cc21 [ZW-800]
[1]
  affinity towards the intracellular proteins: high affinity
[2]
  clearance in the human body: cleared in the human body specifically well

## DOTAGA-LYS-(PEG4-CW800)2 [component 5]
NCI-H69 tumor; all organs
  Uptake in all organs: increased
NCI-H69 tumor; mouse, in vivo
  concentration present (assessment): too high concentration
NCI-H69 tumor; tumor
  uptake in tumor: higher uptake

## IR800CW-PEG4-NaI-DOTA-GA [component 6]
[3]
  forms an aqueous solution: > 1 mM
NCI-H69 tumor; mouse, in vivo
  Radioactivity in blood (comparison between components): higher
  dosage to all organs tested compared to components 1-4: about twice as high
  dosage to the tumor compared to components 1-4: about twice as high
  uptake in tumor: higher uptake
NCI-H69 tumor; mouse, in vivo, 3 h
  Remaining radioactivity in whole body after 3 h: higher
